The source of these data is patent publication CN108690134A (UNIV XIAMEN; YANG SHENG TANG CO LTD, dated 2018).

The target of this assay is T1, HBsAg (乙肝表面抗原) (Hepatitis B virus).
T1 chain: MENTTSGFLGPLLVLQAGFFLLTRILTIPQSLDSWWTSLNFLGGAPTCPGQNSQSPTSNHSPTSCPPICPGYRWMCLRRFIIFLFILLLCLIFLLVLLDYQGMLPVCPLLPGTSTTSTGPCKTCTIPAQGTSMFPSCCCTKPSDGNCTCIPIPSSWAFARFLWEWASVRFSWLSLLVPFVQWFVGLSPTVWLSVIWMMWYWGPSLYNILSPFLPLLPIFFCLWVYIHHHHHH
As to the kind of experiment: SPR, Biacore 3000, HBsAg immobilised on CM5 chip (2400 RU), antibody as analyte from 100 nM in 2-fold dilutions.

B1: 人源化抗体M1D (antibody, V domains shown)
VH: QVQLQESGPGLVKPSETLSLTCTVSGGSITSNFWSWIRQPPGKGLEWIGYISGSGTYTDYNPSLKSRVTISVDTSKNQFSLKLSSVTAADTAVYYCARSHDYGSNDYAFDFWGQGTTVTVSS
VL: DIQMTQSPSSLSASVGDRVTITCRATQDISSSLNWYQQKPGKAPKLLIYYANRLQSGVPSRFSGSGSGTDFTLTISSLQPEDFATYYCQQYHSLPLTFGGGTKVEIK
notes: also called humanized M1-23
In general, Kd refers to a measure of binding affinity in units of concentration. Read a high Kd as lower affinity. In turn, B1 showed a Kd of 1.06 nM.

B2: 人源化抗体M3D (antibody, V domains shown)
VH: QVQLQESGPGLVKPSGTLSLTCAVSGVSISSPYDWTWVRQPPGKGLEWIGRIHGNGGSTSYNPSLKSRVTISVDKSKNQFSLKLSSVTAADTAVYYCVRDETWGQGTLVTVSS
VL: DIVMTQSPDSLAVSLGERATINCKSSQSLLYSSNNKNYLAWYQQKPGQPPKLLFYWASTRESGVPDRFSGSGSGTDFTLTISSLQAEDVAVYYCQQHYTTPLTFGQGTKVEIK
notes: also called humanized M3-23
Molecule B2 gave a Kd of 1.12 nM.
